Assay results: PMC10675231, “Electrochemiluminescence Aptasensor with Dual Signal Amplification by Silica Nanochannel-Based Confinement Effect on Nanocatalyst and Efficient Emitter Enrichment for Highly Sensitive Detection of C-R”

Columns and labels:
C-reactive protein (CRP) [1] = target: T1, C-reactive protein (CRP) (human, UniProt P02741 19-224); test: electrochemiluminescence aptasensor; no significant signal change; 0.01 M phosphate buffer (KH2PO4/Na2HPO4) pH 7.4; CRP incubation 80 min; binding temperature not stated; details: protein: recombinant; chain copies: 5
T1 sequence: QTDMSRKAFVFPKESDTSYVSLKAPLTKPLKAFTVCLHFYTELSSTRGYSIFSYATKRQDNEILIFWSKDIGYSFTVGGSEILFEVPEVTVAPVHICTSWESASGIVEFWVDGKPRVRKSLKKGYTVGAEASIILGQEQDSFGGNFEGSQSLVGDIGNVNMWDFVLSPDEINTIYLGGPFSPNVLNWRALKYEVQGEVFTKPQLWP

[2] = target: cancer antigen 15-3 (CA15-3) (UniProt P15941 24-1097); test: electrochemiluminescence aptasensor; 100 ng/mL CA15-3; change very minimal vs 10 ng/mL CRP; 0.01 M phosphate buffer (KH2PO4/Na2HPO4) pH 7.4; CRP incubation 80 min; binding temperature not stated; details: protein: commercial
C-reactive protein (CRP) [3] = target: T1, C-reactive protein (CRP); test: electrochemiluminescence aptasensor; Ru(bpy)3 2+/TPrA; BSA-blocked; linear 10 pg/mL-1 ug/mL, LOD 7.4 pg/mL; 0.01 M phosphate buffer (KH2PO4/Na2HPO4) pH 7.4; CRP incubation 80 min; binding temperature not stated; details: protein: recombinant; chain copies: 5
alpha-fetoprotein (AFP) = target: T2, alpha-fetoprotein (AFP) (UniProt P02771 19-609); test: electrochemiluminescence aptasensor; 100 ng/mL AFP; change very minimal vs 10 ng/mL CRP; 0.01 M phosphate buffer (KH2PO4/Na2HPO4) pH 7.4; CRP incubation 80 min; binding temperature not stated; details: protein: commercial
T2 sequence: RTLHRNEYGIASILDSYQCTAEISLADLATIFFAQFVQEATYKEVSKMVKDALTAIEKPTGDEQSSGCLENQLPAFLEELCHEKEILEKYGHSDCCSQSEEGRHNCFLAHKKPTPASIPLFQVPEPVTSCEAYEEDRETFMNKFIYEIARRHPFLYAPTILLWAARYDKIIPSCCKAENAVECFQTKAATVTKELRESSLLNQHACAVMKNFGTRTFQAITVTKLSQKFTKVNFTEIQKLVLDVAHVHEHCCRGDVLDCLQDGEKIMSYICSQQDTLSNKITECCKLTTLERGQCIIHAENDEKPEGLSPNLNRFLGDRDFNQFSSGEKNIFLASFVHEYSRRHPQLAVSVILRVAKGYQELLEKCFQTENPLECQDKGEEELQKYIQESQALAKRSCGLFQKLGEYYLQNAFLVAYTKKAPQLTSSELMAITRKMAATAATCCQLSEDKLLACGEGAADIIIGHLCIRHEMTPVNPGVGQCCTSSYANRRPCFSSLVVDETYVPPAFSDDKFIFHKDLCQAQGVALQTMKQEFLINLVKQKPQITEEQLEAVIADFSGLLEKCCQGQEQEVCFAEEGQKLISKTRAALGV

Sequence of cancer antigen 15-3 (CA15-3) (P15941 24-1097): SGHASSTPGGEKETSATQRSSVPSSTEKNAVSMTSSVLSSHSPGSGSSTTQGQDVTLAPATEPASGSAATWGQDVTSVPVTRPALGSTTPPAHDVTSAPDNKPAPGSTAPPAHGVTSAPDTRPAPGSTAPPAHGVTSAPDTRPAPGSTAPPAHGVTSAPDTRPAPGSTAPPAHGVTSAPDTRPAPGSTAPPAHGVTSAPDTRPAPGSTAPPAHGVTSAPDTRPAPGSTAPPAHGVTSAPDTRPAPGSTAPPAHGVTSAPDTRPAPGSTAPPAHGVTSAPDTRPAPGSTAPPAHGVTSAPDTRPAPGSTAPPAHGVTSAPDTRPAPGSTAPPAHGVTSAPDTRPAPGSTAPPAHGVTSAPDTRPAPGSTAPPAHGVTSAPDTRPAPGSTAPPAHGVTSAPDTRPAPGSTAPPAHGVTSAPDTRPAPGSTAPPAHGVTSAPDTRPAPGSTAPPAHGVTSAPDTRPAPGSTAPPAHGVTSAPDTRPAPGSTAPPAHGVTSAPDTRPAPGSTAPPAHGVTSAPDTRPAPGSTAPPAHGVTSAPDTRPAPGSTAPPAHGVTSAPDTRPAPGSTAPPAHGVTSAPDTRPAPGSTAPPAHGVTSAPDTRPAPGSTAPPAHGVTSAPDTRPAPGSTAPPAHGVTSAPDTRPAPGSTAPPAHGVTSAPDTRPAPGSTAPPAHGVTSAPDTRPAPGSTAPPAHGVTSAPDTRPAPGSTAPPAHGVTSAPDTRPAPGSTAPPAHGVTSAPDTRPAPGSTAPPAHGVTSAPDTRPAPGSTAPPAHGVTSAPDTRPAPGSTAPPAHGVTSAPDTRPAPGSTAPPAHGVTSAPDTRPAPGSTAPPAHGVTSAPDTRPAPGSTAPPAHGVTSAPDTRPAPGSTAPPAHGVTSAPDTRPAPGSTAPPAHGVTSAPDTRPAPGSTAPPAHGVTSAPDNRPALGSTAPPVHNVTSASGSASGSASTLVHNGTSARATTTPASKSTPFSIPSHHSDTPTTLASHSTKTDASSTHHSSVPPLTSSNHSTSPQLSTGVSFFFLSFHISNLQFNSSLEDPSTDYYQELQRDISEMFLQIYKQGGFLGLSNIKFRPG

| Binder | binding result (C-reactive protein (CRP) [1]) | binding result [2] | binding result (C-reactive protein (CRP) [3]) | binding result (alpha-fetoprotein (AFP)) |
| --- | --- | --- | --- | --- |
| ATTAAAGCTCGCCATCAAATAGCTGC (ssDNA, 5'-NH2) [PSA aptamer] | no binding |  |  |  |
| ATACCAGCTTATTCAATT (ssDNA, 3'-NH2 (sequence line; text also says 5' amino)) [CEA aptamer] | no binding |  |  |  |
| GTTGGGCACGTGTTGTCTCTCTGTGTCTCGTGCCCTTCGCTAGGCCCACA (ssDNA, 3'-NH2 (sequence line; text also says 5' amino)) [AFB1 aptamer] | no binding |  |  |  |
| CGAAGGGGATTCGAGGGGTGATTGCGTGCTCCATTTGGTG (ssDNA, 5'-NH2) [CRP aptamer] |  | no binding | binds | no binding |
